Data from paper PMC8597827, “The effect of S427F mutation on RXRα activity depends on its dimeric partner†”.

Biological target: RXRα S427F (human, UniProt P19793 1-462, S427F)
Assay: EMSA; no ligand; binds as well as WT; two shifts; competed by 5x and 25x unlabeled DR1; 10 mM Tris HCl pH 8.0, 150 mM KCl, 0.5 mM EDTA, 0.1% Triton X-100, 12.5% glycerol, 0.2 mM DTT, 1 ug poly(dI-dC), 100 pmol probe in 20 uL; 10 min RT then 5 min 37 C; 5% PAGE in 0.5x TBE at 4 C
Settings: protein: recombinant; chain copies: 2; blunt

Sequence of RXRα S427F (P19793 whole entry S427F): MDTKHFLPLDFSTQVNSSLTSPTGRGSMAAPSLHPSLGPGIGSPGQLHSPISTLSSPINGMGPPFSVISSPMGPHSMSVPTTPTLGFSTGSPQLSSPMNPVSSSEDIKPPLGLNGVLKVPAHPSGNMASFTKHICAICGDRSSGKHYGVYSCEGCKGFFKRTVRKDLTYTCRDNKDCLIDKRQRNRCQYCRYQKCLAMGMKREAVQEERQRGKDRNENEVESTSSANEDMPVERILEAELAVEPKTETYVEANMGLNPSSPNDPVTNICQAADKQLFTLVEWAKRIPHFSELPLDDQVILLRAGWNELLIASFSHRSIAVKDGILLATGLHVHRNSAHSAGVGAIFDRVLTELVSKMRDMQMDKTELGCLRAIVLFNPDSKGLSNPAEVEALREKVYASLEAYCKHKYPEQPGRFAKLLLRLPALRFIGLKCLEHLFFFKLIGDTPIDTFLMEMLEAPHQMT

B1: DR1 (dsDNA)
DNA 1: TCGAGGGTAGGGGTCAGAGGTCACTCGTCGA
DNA 2: TCGACGAGTGACCTCTGACCCCTACCCTCGA
B1: binds.
